Test results taken from patent US20180000964A1 (Genentech, published 2018).
Like-named read-outs stand apart in the source and are kept apart here. Blank lines part the entries; values can stand above or below the binder they belong to.

Legend:
[1] = target: murine basigin extracellular domain, murine Fc tagged (murine); assay: competitive ELISA on coated murine basigin against biotinylated bispecific antibody
[2] = target: T1, murine basigin extracellular domain, murine Fc tagged (murine); assay: as above
T1 construct: also called mBsg ECD; murine basigin (ELISA antigen)
T1 chain: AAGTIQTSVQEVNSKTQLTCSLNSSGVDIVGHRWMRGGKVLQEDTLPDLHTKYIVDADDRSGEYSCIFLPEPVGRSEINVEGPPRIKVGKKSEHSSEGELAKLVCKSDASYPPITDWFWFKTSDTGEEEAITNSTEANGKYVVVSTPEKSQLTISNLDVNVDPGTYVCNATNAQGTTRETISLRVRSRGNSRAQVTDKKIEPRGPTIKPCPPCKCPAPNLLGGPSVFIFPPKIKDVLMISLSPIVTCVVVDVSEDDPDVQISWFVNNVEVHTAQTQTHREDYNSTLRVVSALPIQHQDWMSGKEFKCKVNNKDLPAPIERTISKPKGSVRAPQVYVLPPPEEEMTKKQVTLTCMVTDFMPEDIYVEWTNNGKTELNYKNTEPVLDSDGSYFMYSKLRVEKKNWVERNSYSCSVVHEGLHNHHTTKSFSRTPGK
Protocol: Nunc 96-well Maxisorp immunoplates were coated overnight at 4° C. with antigen (2 μg/ml) and blocked for 1 hour at room temperature with blocking buffer PBST. Serial dilutions of bivalent or bispecific antibodies were subsequently added to the plates with a sub-saturating concentration of biotinylated bispecific antibody at room temperature for 1 hour. Plates were washed with wash buffer (PBS with 0.05% Tween 20) and incubated for 30 minutes with horseradish peroxidase (HRP)-conjugated streptavidin, and developed with tetramethylbenzidine (TMB) substrate. Absorbance was measured spectrophotometrically at 650 nm.

[3] = target: T1, murine basigin extracellular domain, …; assay: Biacore; 'Binding affinity (nM)'; form of the antigen not stated
murine Glut1 (on cells) = target: T2, murine Glut1 (on cells) (murine, UniProt P17809 1-492); assay: flow cytometry (MFI) on HEK293 cells stably expressing Glut1; bivalent (monospecific) anti-Glut1, not the bispecific anti-Glut1/BACE1
T2 construct: whole, on cells; also called glucose transporter 1; Slc2a1
T2 sequence (looked up): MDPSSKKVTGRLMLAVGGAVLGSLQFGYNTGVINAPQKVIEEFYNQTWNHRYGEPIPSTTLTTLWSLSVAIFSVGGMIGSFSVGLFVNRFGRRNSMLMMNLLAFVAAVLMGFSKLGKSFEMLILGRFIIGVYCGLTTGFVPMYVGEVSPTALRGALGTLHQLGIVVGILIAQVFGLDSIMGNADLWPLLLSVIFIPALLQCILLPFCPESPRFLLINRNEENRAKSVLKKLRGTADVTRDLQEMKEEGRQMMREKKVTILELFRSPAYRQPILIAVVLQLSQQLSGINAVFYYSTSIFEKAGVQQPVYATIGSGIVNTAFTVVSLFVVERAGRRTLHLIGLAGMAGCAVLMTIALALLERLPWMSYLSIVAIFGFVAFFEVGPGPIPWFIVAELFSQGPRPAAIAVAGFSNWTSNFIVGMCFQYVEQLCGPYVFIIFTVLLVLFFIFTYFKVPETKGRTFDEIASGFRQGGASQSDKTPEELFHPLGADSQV
Protocol: Purified antibodies were screened on 293 cells transfected with the corresponding antigens. Cells were collected from flasks/dishes, washed with phosphate-buffered saline (PBS), and added to 96-well U-bottom plates (BD Falcon 353077, BD, Franklin Lakes, N.J.) at 1,000,000 cells per well. Samples were added to cells (100 μL/well) and incubated at 4° C. for 30-60 minutes. Plates were then centrifuged (1200 rpm, 5 minutes, 4° C.) and washed twice with PBS/1% FBS (200 μl per well). R-Phycoerythrin-conjugated Ziege anti-human IgG Fc (Jackson ImmunoReseach Laboratories Inc. (West Grove, Pa.); 109-116-098; 100 μl diluted in PBS) was then added and the plates incubated at 4° C. (covered) for 30 minutes. After the final wash, the cells were fixed in PBS containing 1% formalin, and read using a FACSCalibur™ flow cytometer (BD Biosciences, San Jose, Calif.). Mean fluorescence intensity (MFI) of each sample was then measured using the FlowJo software (Treestar, Inc., Ashland, Oreg.).

IC50 [1]: 127 nM | IC50 [2]: 17.5 nM | Kd [3]: 102 nM
B1: anti-Bsg^B (antibody, V domains shown)
VH: EVQLVESGGGLVQPGRSLKLSCVASGFTFNNYWMTWIRQAPGKGLEWFASITNTGGSTYYPDSVKGRFTISRDNAQSTLYLQTNSLRPEDTATYYCARRDGSYYPYYWYFDLWGPGTTVTVSS
VL: NTVMTQSPTSMFISVGDRVTMNCKASRSVGTNVDWYQQKTGQSPTLLFYGASNRYIGVPDRFTGSGSGTDFTLTISNMQAEDLAVYYCLQYNYNWAFGGGTKLELK
notes: also called bivalent (monospecific) anti-Bsg^B

IC50 [1]: 106 nM | IC50 [2]: 7.1 nM | Kd [3]: 13.5 nM
B2: anti-Bsg^A (antibody, V domains shown)
VH: EVQLVESGGGLVLPGRSMKLSCAASGFTFRTYYMAWVRQAPTKGLEWVASISIGGDNTYYRDSVMGRFTISRDDAKSTLHLQMDNLRSEDTATYYCVRLRGYFDYWGQGVMVTVSS
VL: EIVLTQSPATMPASPGEKVTLTCRASSSIRYIYWYQQKSGTSPKLWIYDTSKLASGVPNRFSGSGSGTSYSLTISSMETEDTATYYCQQGRSYPLTFGSGTKLEIK
notes: also called bivalent (monospecific) anti-Bsg^A

EC50 (murine Glut1 (on cells)): 0.6 µg/mL
B3: anti-Glut1 antibody (antibody, V domains shown)
VH: QVQLQQPGSVLVRPGASVKLSCKASGYTFTGSWLHWAKQRPGQGLEWIGEIHPYSGNTNYNERFKGKATLTVDTPSSTAYVDLRSLTFEDSAVYYCAKEGGWFLRIYGMDYWGQGTSVTVSS
VL: DIVLTQSPSSLSASLGDTITITCHASQNINVWLSWYQQKPGNIPKLLIYKASNLHSGVPSRFSGSGSGTGFTLTISSLQPEDIATYYCQQGQTFPYTFGGGTRLEIK
notes: Raised by DNA immunization with hGlut1 cDNA; also called bivalent (monospecific) anti-Glut1
